Source: the nanobody polyreactivity screen of Harvey et al. (2022)

Test: yeast display, Sf9 membrane polyspecificity reagent, FACS + sequencing; frameworks hold sequencing errors
Method in brief: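 A synthetic nanobody library was expressed on Saccharomyces cerevisiae BJ5465 by galactose induction for 36–48 hours. The library was stained for 1 hour at 4 °C with 10% biotinylated, detergent-solubilized Sf9 membrane reagent and enriched with streptavidin microbeads before FACS. Low and high (top ~1%) gates were set on anti-HA fluorescence for expression and streptavidin fluorescence for reagent binding, and each polyreactivity label reflects the gate of origin.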

Sequence	polyreactivity (PSR sort gate)
QVQLVESGGGLVQAGGSLRLSSAASGSTLGVYAMGWYRQAPGKERELVAGITRGGGRTYYADSVKGRFTISRENAKNTVYLQMNSLKPEDTAVYYCNKGQRGPYDYWGQGTQVTVSS	high polyreactivity
QVQLVESGGGLVQAGGSLRLSSAASGYILPFYAMGWYRQAPGKERELVASISSSSGRTNYADSVKGRFRISRDYAKNTVFFEMNSLKREVTEVYYCAAAFLSYVSTQYHYDYWGQGTQVSVSS	low polyreactivity
QVQLVESGGGLVQAGGSLRLSSAATGITFSSYAMGSYRQAPGKERELVAAISTRGGSTYYADSVKGRFTISRDNAKNTVYLQMNSLKPEDTAVYYCATGGRGGRRYEYWGQGTQVTVSS	low polyreactivity
QVQLVESGGGLVQAGGSLRLSSAATGSTSYNDMGWYRQATGKQRELGASITSSGDDTYYADSVKGRFTISRDNAKNTVYLQMNSLKPEDNAVYYCAAEDYHRHVGSYYVIDYDYWGQGTQVTVSS	low polyreactivity
QVQLVESGGGLVQAGGSLRLSSAATGYIYSHNAMGWYRQSPGKEREFVAGIDSSGGSTSYADSVKGRFTISRDNAKNTVYLQMNSLKPEDTAVYYCAADRTGSHFDYCGQGTQVTVSS	low polyreactivity
QVQLVESGGGLVQAGGSLRLSSADSGFIFSYYAMGWYRQAPGKERELVAAISSVGSTNYADSVKGRFTISRDNAKNTVYLQMNSLKPEDTAVYYCAARYLWYKYYYWGQGTQVTVSS	high polyreactivity
QVQLVESGGGLVQAGGSLRLSSADSGRTFRYYSMGWYRQAPGKERELVAAISSSGASTYYADSVKGRFTISRDYAKNTVYLQMNSLKPEDTAVYYCRSGILFYSRYDYWGQGTQVTVSS	low polyreactivity
QVQLVESGGGLVQAGGSLRLSSAPSGSTFTRYAMGWYRQAPGKERELVAAITSSGSRTYYADSVKGRFTISRDNAQNTVYLQKNSLKAEDTAVYYFAALGDTRYVGMDHWGQCTQVTVSS	high polyreactivity
QVQLVESGGGLVQAGGSLRLSSAPSGSTIHTYTMGWYRQAPGKDRELVAGISRSGGTTYYADSVKGRFTISRDNAKNTVYLQMNSLKPEVTAVYDCNALSSKTDTYDYWGQGTQVTVSS	high polyreactivity
QVQLVESGGGLVQAGGSLRLSSDASGFIFSFNALGWYRQAPGKERELVAAISRSGGSTRYADSVKGRFTISRDNAKNTVYLQMNSLKPEDTAVYYCANRFASYRYHPGYDYWGQGTQVTVSS	high polyreactivity
QVQLVESGGGLVQAGGSLRLSSDASGRIFYVYTMGWYRQAPGKEREFVAAISDSGGSTYYADSVKGRFTISRDNAKNTVYLQMNSLQTEDTAVYYCNAGYGPAAYYWYYGGYYYWGQGTQVTVSS	low polyreactivity
QVQLVESGGGLVQAGGSLRLSSDASGRILAGYAMGWYRQAPGKERELVAAITRGGTTYYADYVKGRFTISRDNAKNTVYLQINSMKPEDTAVVYTVSSAQYDFWGQGTQVTVSS	low polyreactivity
QVQLVESGGGLVQAGGSLRLSSDASGSIFTAYSIGWYRQAPGKERELVADITQSAGSTYADSVKGRFTISRDNAKNTVYLQMNSLKPADTAVYYCAARYRYPYYARYGYWGQGTQVTVSS	high polyreactivity
QVQLVESGGGLVQAGGSLRLSSPASGITFDKYAMGWYRQAPGKERELVAAISRSAGSTYYADSVKGRFTISRDNEKYSVYLQMKSLKPEDCAVYLCAGDPLIYDDYYWGQGTNVTVSS	high polyreactivity
QVQLVESGGGLVQAGGSLRLSSPASGLIFGAYAMGWYRQERGKERELVAAISYSGGRTYYADSVKGRFTMSRDNAKNTVYLQLNSLKPEDTAVYYCNALWYLSLSYRYDYWGQGTQVTVSS	high polyreactivity
QVQLVESGGGLVQAGGSLRLSSPASGSIFITYAMGWYRQAPGKESELVAAIRDSGDRTYYADSVKGRFTISRDNAKKTVYFQMNSLKPEDTAVYYCNARWQEPLKYDYWGQGTQVTVSS	low polyreactivity
QVQLVESGGGLVQAGGSLRLSSPDSGYIFLPYTMGWYRQAHGKERELVASITWRGTNTYYADSVKGRFTISRDNAKNTVYLQMNSLKPEDTAGYYCTKVPTYWDPNYYYWGQGTQVTVSS	high polyreactivity
QVQLVESGGGLVQAGGSLRLSTAASGIIFWYNAMGWYRQAPGKERELVAAISTGGSTNYADSVKGRFTISRDNAKNTVYLQMNSLKPEDTAVYYCAADWHRSYGAYDYWGQGTQVNVSS	low polyreactivity
QVQLVESGGGLVQAGGSLRLSWAASGFTFKYYDMGWYRLAPGQERELVAAIDTSGGNTYYADSVKGRFTISRDNAKNTGYVQMNSLKPEETAVDYCAATVPYYHDDYWGQGTQVTVSS	low polyreactivity
QVQLVESGGGLVQAGGSLRLSWAASGITLHGYAMGWYRQAPGKERELVAAITGSGGRTYYADSVKGRFTISRDNAKNTVYLQMNSLKPEDTAVYYCNAGAVYWGYSRGWYERDYWGQGTQVTVSS	high polyreactivity
QVQLVESGGGLVQAGGSLRLSWAASGRIFIGYPMGWYRQAPGKERELVAAISRNGDNTYYADSVKGRFTISRDNAKNTVYLQMNSLKPEDSAVYYCAAVAYPREWKLSYEDGSWGYDYWGQGTQVTVSS	low polyreactivity
QVQLVESGGGLVQAGGSLRLSWAASGRIFYFYAMGWYRQAPGKERELVASISSGGITNYADSVKGRFTISRDNAKNTVYLQMNSLKPEDTAVYYCNAGYASGKYSGGYLYGYWGQGTQVTVSS	low polyreactivity

Sequence	polyreactivity (PSR sort gate)
QVQLVESGGGLVQAGGSLRLSWAASGSIFFFNAMGWYRQAPGKEREFVAAITSSSGRTYYADSVKGRFTISRDNAKNTVYLQMNRLKPEDTAVYYCAAQVPEDTETVDYWGQGTQVTVSS	low polyreactivity
QVQLVESGGGLVQAGGSLRLSWAASGSIFQVYAMGWYRQAPGKEREFVAAISYSGGGTYYADSVKGRFTISRDNAKNTVYLQMNSLKPEDTAVYYCAADVSGWEYDYWGQGTQVTVSS	low polyreactivity
QVQLVESGGGLVQAGGSLRLSWAASGSTFEYNVMGWYRQAPGKERELVAAITQGDGGSTYYADSVKGRFTISRDNAKKTVYLQKNSLIPEDTAVYYCNAGYFTEYNSWGQGTEVTVSS	high polyreactivity
QVQLVESGGGLVQAGGSLRLSYAASGSTFFFNALGWYRQAPGKERELVATISRDGSTNYADSVKGRFTISRDNAKNTVYLQINSLKPEDTAVYYCAAGWGWPYHQYDYWGQGTQVTVSS	low polyreactivity
QVQLVESGGGLVQAGGSLRLTCAASARTFVGNAMGWYRQAPGKERELVAVITGSGARTYYADSVKGRFTISRDNAKNTVYLQMNSLKPEDTAVYYCAGSGYSGQYRSYYWGQGTQVTVSS	high polyreactivity
QVQLVESGGGLVQAGGSLRLTCAASASIFGSAMGWSRQAPGNEMELVASTTDADSVKGRFTISRDNAKNTVYLQMNSLKPEDTSVYYCAADDWDTVEMEYWGQVTQVTVSS	low polyreactivity
QVQLVESGGGLVQAGGSLRLTCAASASTFKPYAMGWDRQAPGKERELVAAINGSGGDTYYADSVKGRFTISRDNAKTTVYLQMNSLKPEDTAVYYCAAQWGYYNYWYGYWGQGSQVTVSS	low polyreactivity
QVQLVESGGGLVQAGGSLRLTCAASGAIFDSYAMGWYRQAPGKEWQLVASISYRGGSTYYADSVKGRFTISRDHAKNTVYLQKNSLKPEDTAVYYCAATPGYHYRSWRYYYWGQGTLVTVSS	high polyreactivity
QVQLVESGGGLVQAGGSLRLTCAASGFIFKANAMGWYRQAPGKERELVASITFGGDSTYYADSVKGRFTISRDNAKNTVYLHMNSLKPEDTAVYYCNTRRRSYRTYYYWGQGTQVTVLS	low polyreactivity
QVQLVESGGGLVQAGGSLRLTCAASGFIFYNNAMGWYRQAPGKERELVASIRWSGASTYYADSVKGRFTISRDNAKNTVYLQMNSLKPEDTAVYYCAARQSRLNSYFSHRFWRYDYWGQGTQVTVSS	high polyreactivity
QVQLVESGGGLVQAGGSLRLTCAASGFIFYSYAMGWYRQAPGKERELVAAISTSGGSTYYADSVKGRFTISRDNAKNTVYLQMNSLKPEDTAVYYCAVGRKFGRYRVPFVVPYEYWGQGTQVTVSS	high polyreactivity
QVQLVESGGGLVQAGGSLRLTCAASGFTFARYAMGWYRQAPGKERELVAAISSNDNTSYADSVKGRFTISRDNAKNTVYLQMNSLKPEDTAVYDCAKKRYHWYGRYYYWGQGTQLTVSS	high polyreactivity
QVQLVESGGGLVQAGGSLRLTCAASGFTFAYKTMGWYRQAPGKERELVAAISWSGGRTYYADSVKGRFTISRDNAKNTVYLQMNSLKPEHTAVYYCAAEFWNQYGAYDYWGQGTQVTLSS	low polyreactivity
QVQLVESGGGLVQAGGSLRLTCAASGFTFGPYDMGWSRQAPGKERELVAAITDSSGSTHYADSVKGRFTISRDNAKNTVYLQMNSLKPEDTAVYYCAAQLKSHSTYGHDYWGQGTQVTVSS	low polyreactivity
QVQLVESGGGLVQAGGSLRLTCAASGFTFGRYTMGWYRQAPGKERELVAAISGRGSRTYYADSVKGRFTISRDNAKNTVYLQMSSLKPVDTAVYYCAADVNVRSDMDYWGQGTQVTVSS	high polyreactivity
QVQLVESGGGLVQAGGSLRLTCAASGFTFGSYAMGWNRQAPGKERELVAVITRSGRTNYADSVKGRFTISRDNAKNTVYLQMNSLKPEDTAVYYCNADDVDDEVSPDLTEMDYWGQGTQVTVSS	low polyreactivity
QVQLVESGGGLVQAGGSLRLTCAASGFTFPYYAMGWYRQAPGKERELVAAIDWTGGSTYYADSVKGRFTISRDNAKNTVYLQMNSLKPEDTAVYYCNRELTSPRRWHVSRAYDYWGQGTQVTVSS	low polyreactivity
QVQLVESGGGLVQAGGSLRLTCAASGFTFRYYTMGWYRQAPGTERELVARISNRGGSTYYADSVKGRFTISRDNAKNTVYLQMNSLKPEDTAVFYCAAARRYYTYYREDYYYWGQGTQVTVSS	high polyreactivity
QVQLVESGGGLVQAGGSLRLTCAASGFTFSPNAMGWYRQAPGKERELVAAIDWSGDRTYYADSVKGRFTISRDNAKNTVYLQMNSLKPEDTAVYYCNVVGRSPGDYSYYYSGQGTQVTVSS	low polyreactivity
QVQLVESGGGLVQAGGSLRLTCAASGGIFGINAMRWYRQAPGKERELVAAITSGDSTNYADSVKGRFTISRDNAKNTVYLQMNSLKPEDTAVYYCNADPDTYVSTITHDSWGQGTQVTVSS	low polyreactivity
QVQLVESGGGLVQAGGSLRLTCAASGGILGYYAMGWYRQEQGKERELVAAISSSVGRTYYADSVKGRFTISRDNAKNSVFLQMNSLKPEDTAVYYCNKDIGRSYNYWGQGTQVTVSS	high polyreactivity
